# Assay: yeast display, Sf9 membrane polyspecificity reagent, FACS + sequencing; frameworks hold sequencing errors
# How it was run: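 In a synthetic yeast display library (Saccharomyces cerevisiae BJ5465), nanobody expression was induced with galactose for 36–48 hours. FACS gates were set low and high (top ~1%) using anti-HA fluorescence for expression and streptavidin fluorescence for binding of the Sf9 membrane reagent. Each polyreactivity label is drawn from the gate of origin.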
row,Sequence,polyreactivity (PSR sort gate)
1,QVQLVESGGGLVQARGILRLSCAASGIIFYTYAMGLYRQAPGKERELVAAITARTANTYYADSVKGRFTISRDNAKNTVYLQMNSLKPEDTAVYYCAAAIYSYRTPYYYWGQGTQVTVSS,high polyreactivity
2,QVQLVESGGGLVQAGGSLRLSSAASGRTFYSNAMGWYRQAPGKERELVAAITRGASTKYADSVKGRFTISRDNAKNSVYLQMNSLKPEDTAVYYCDTARYPRYIYDYWGQGTQVTVSS,low polyreactivity
3,QVQLVESGGGLVQAGGSLRLSCAASGSTCYKYAMGWYRKAPGKERELVAVITKSGGSTYYADSVKGRFTISRDNAKNPVYLQMNSLTPEDTAVYYCGTVQSGRVRTYDYCGQGTQVTVSS,high polyreactivity
4,QVQLVESGGGLVQAGGSLRLSCAASGSIFSVYAMGWYRQAPGKERELVAAITRGGNTYYADSVKGRFTISRDNAKNTVYLQMNSLKPEDTAVYYCNAGPYGRFYYRGLGYWGQGTQVTVSS,low polyreactivity
5,QVQLVESGGGLVQAGGSLRLSCAASGSTFGSYAMGWYRQAPGKEREFVATINTSNDRTYYADSVKGRFTISRDKAKNTVYLQMNSLKPEDTAVYYSNVLVYNVHTRGYWGQGTQVTVSS,high polyreactivity
6,QFQLVESGGGLVQAGGSLRLSCAASGSIFYRNAMGWYRQAPGKERELVAAISRRGGSTYYADSVKGRFTISRDNAKNTVYLQMNSLKPEDTAVYYCATDGSTSKLVTVAYDYWGQGTQVTVSS,high polyreactivity
7,QVQLVESGGGLVQAGGSLRLSCAASGSTFGSYAMGLYRQAPGKERELVAAITQIGGSTYYADSVKGRFTISRDNAKNTVYLQMNSLKPEDTAVYYCAVTAGRGGYPQGGVTRGYWGQGTQVTVSS,high polyreactivity
8,QVHLVESGGGLVQAGGSLRLSCAASGITFRTYALGGYRQAPGKERELVAAITRGDSTYYADSVKGRFTISRDNAKNTVYLQMNILKPEDTAVYYCNTETTDFRRYEYWGQGTQVTVSS,low polyreactivity
9,QGQHVESGGGLVQARGSRRLSCAPSGRTFGYDAMGWYRQAPGKERELVAAINYSGVSTYYADSVKGGFTISRDTAKNTVYLQRNSLKPEDTAGSYCAAKGRYSVYSRNSWGQGTQVTVSS,high polyreactivity
10,QVQLVESGGGLVQAGGSLRLSCAASGITFTVNAMGWYRQAPGKERELVAAISNDGSTYYADSVKGRFTISRDNAKNTVYLQMNSLKPEDTAVYYCSADTWDDFGPYGYDYWGQGTQVTVSS,low polyreactivity
11,QVQLVESVGGLVQAGGSLRLSCAASGRTFARYAMGWERQAPGQERELVAAISRNTGSTYADSVKGRFTISRDNAKNTVSLQMNSLKPEDTAVYYFASSWRGQDPYYRYVGRDYWGQGTQVTVSS,high polyreactivity
12,HDQLVESGGGLLQAGGSLRLSCAASGITLYRYVMGWYRQAPGKERELVAYIAGRGTSTYYSDSVKGRFTISRDHAKNTVYLQMNSLKPEDTAVYFCNAEYTKTGALVIPYTYYYAEDYWGQGTQVTVSS,low polyreactivity
13,QVQLVESGGGLVQAGGSLRLSCAASGITFDKYAMGWNRQAPGKERELDAAISGSDGSTYYADSVKGRFTISRDNAKNTVYLQMNILKPEDTAVYYCAAESEYAGTYEYDYWGQGTQVTVSS,low polyreactivity
14,QVHLVESGGGLVQAGGSLRLSCAASGNIFGLYAMGWYRQAPWKERELVAAISWRGGNTYYADYVKGRFTISRDNAKNTVYLQMNSLKPEDTAVYYCAAEAGYWYDYWGQGTQVTVSS,high polyreactivity
15,QVQLVESGGGLVQAGGSLRLICAASGSTSYVYAMGWYRQAPGKERELVAAISGSGGRTYYADSVKGRFTISRDNAKNTVYLQMNSLKPEDTAVYYCNALPRPSYPFEYWGQGTQVTVSS,high polyreactivity
16,QVQLVESGGGLVQAGGSLRLSCAASGFIIYKYAMGWYRQAPGKERELVAAISWSGGSTYYADSVKGRFTISRDNAKNTVYFQMNSLKPEDTAVYYCAARQWSQGWYDYWGQGTQVTVSS,high polyreactivity
17,QVQLVESGGGLVQAGGSLRLSCAASGGIFYPNAMGWYRQAPAKERELVAANTSGGSTSYADSVKGRFTISRDNAKDTVYLQMNSLKPEDTAVYYCAASTTAYAYVNYGSWGQGTQVTVSS,low polyreactivity
18,QVQLVESGVGLVQAGGSLRLSCAASGLTFDYNAMGWYRQAPGKERELVARISRSGGTTYYADSVKGRFTISRDNAKNTVYLQMNSLKPEDTAVYYCAAERYYVGAYGYWGQGTQVTVSS,high polyreactivity
19,QVQLVESGGGLVQAGGSLRLSCAASGRIFYGYAMGWYRQAPGKERELVAAISWRGGRTYYADSVKGRFTISRDNAKNTVYLQMNSLKPEDTAVYYCNKDFPPQGQLRNMYYWGQGTQVTVSS,high polyreactivity
20,QVQLVESGGGLVQAGGSLRLICAASGITFDYYVMGWSRQAPGKERELVAVITWSGSTYYADSVKGRFTISRDNAKNTVYLQMNSLKPEDTAVYYCAADWVTYYDFEFYYWGQGTQVTVSS,high polyreactivity
21,QVQLVESGGGLVQAGGSLRLSCAASGSTFYLYAMGWYRQAPGKEREFVAAISWSGGRTYYADSVKGRFTISRDNAKNTVYLQMNSLKPEDTAVYYCAAKPLFGTRDDYWGQGTQVTVSS,low polyreactivity
22,QVQLVESGGGLVQAGGSLRLSCAASGRIFKGYAIGWYRLAPGKERELVASITWRGGTTYYADSVKGRFTISRDNAKNTVYLQMNSLKPEDTAVYYCATTRYPRSYQEFGYWGQGTQVTVSS,high polyreactivity

row,Sequence,polyreactivity (PSR sort gate)
1,QVQLVESGGGLVQAGGSLRLSCAASGRIFGNYAMGWYIQAPGKERELVAAISSGGNTNYADSVKGRFTISRDNAKNTVYLQMNSLKPEDTAVYYCAAYHFSFGWIRVDYWGQGTQVTVSS,high polyreactivity
2,QVQLVESGGGLVQAGGSLRLSCAASGLTFGYYAMGWYRQAPGKERELVAAISRGSSTYYADSVKGRFTISRDNAKNTVYLQMNSLKPEDTAVYYCNALFSYGYWRVRYIVTQYDYWGQGTQVTVSS,high polyreactivity
3,QDQLVESRGGIVQAVRSLRLSCAASGSIFIDNAMGWYRQAPGKESEFVAAISKSATSTYYADSVKGRFTISRDNAYNTVYLEMKSLIPEDTAVYYCAVRRPRPYSNYYYWGQGTQVNVSS,high polyreactivity
4,QVQLVESGGGLVQAGGSLRLSCAASGRIFWWYVMGWYRQAPGKERELVAAITRSGVSTYYADSVKGRFTLSRDNAKNTVYLQINSLKPEDTAVYYCNVGPWPRSYAHRGYWGQVTQVTVSS,high polyreactivity
5,QVQLVESGGGLVQAGGSLRLSSAASGFIFPVYTMGWYRQAPGTERELLAAITQIGGSTHYADSVKGRFTISRDNAKNTVYLQMNSLKPVDTAVYYFNAVPSYGTEYDYWGQGTQVTVSS,low polyreactivity
6,QVQLVESGGGLVQAGGSLRLICAASGITFDDYDMGWYRQAPGKEREFVSAISFSGSSTYYADSVKGRFTISRDKAKNTVYLQMNSLKPEDTAVYYCNADYVYSGGRYFGKDYWFDYWGQGTQVTVSS,low polyreactivity
7,QVQLVESGGGLVQAGGSLRLSCAASGRIFGGNAMGWYRQAPGKERELVAAITTRGGSTYADSVKGRFTISRDKAKNTVYLQMNSLKPEDTAVYYCAVERSYHGGPRYLVRTYGYWGQGTQVTVSS,low polyreactivity
8,QVQLVESGGGLVQAGGSLRLSCAASGSIFWWNAMGWYRQAPGKERELVAAISYSGGSTYYADSVKGRFTISRDNAKKTVYLQRNSLKPEDTAVYYCAATKFRYYGYDYWGQGTQVTVSS,low polyreactivity
9,QVQLVESGGGLDQAGGSLRLSCAASGRIFLPNAMGWYRQAPGKEMEFVASISWSGGSTYYADSVKGRFTISRDYAKNTVYLQMNSLKPEDTAVYYCNARFGKRYYYWGQGTQVTVSS,low polyreactivity
10,QVQLVESGGGLVQAGGSLRLSCAASGRIFYFNAMGWYRQAPGKERELVAAISWRGGSTYYADSVKGRFTISRDYAKNTVYLQMNSLKPEDTAVYYCNAVLWGYWPGYDYWGQGTQVTVSS,high polyreactivity
11,QVHLVESGGGLVQAVSSLRLSCAASGSTFRAYAMGWYRQEPGKDRELVARITFSGGSTYYADSVKGRFTISRDNAKNTVYLQMNSLKPEDTAVYYCNARRTYLDRYNYWGQGTQVTVSS,high polyreactivity
12,QVQLVDSRGLLVQAGGSLRLSCAASGSTYSYYAMGWYRQAPGKERELVAAITRGGSTYYADSVKGRFTISRDNAKNTVYLQMNSLKPEDPAVYYCSATHVSRRWGMDYWGEGTQVTVSS,high polyreactivity
13,QVQLVESGGGLVQAGGSLRLSCAASGYTFLVYTKGWYRQAPGKERELVATISWSGTSTDYADSVKGRFTISRDNAKNTVYLQMNSLKPEDTAVYYCNAKYPRAYLYGYKLFDSWGQGTQVTVSS,high polyreactivity
14,QVELVESGGGLVQAGGSLSLSCAASGFTFVGNTMGWYRQAPGKEREWGAAIRGRDGRTYYADSVKGRFTISRDKAKNTVYLQMNSLKPEETAVYYCNVDVKYSVRSEIDYWGQRTQVTVSS,low polyreactivity
15,QVQLVESGGGLVQAGGSLRLICAASGRIFVRNARGLYRQAPGTERELVASISQNGGRTYYADSVKGRFTISRDNAKNTVYLQMNSLKPEDTAVYYCARGRGGSRPGLDYWGQGTQVTVSS,high polyreactivity
16,QVHLVESGGGFVQAGGSLRVSCAASGRSCGYNAMGWYRQAPGKERELVAAITSGGSTYYADSVKGRFTISRDNAKHTVYLQMNSLKPEDTAVYYCAARFSYWKTKRAYDWGQGTQVTVSS,high polyreactivity
17,QVQLVESGGGLVQAGGSLRLSCAGYGSIFWWYPMVWYRQAPGKERELVASISWSGTSTYYADSVKGRFTISRDNAKNTVYLQMNSLKPEDTAVYYCNADVYWPGTPYTHDYWGQGTQVTVSS,low polyreactivity
18,QVQLVESGVGLVQAGGSLRLSCAASGRIFHYNAMGWYRQAPGKERELVAAISTGGSTNYADSVKGRFTISRDNAKNTVYLQMNSLKPEDTAVYYCAADRTLSYEYWGQGTQVTVSS,low polyreactivity
19,QVQLVESGGGLVQAGGSLRLSCAASGRIFPHYAKGWYRQAPGKERELVAAISSGGRTNYADSVKGRFTISRDNAKNTVYIQMNSLKPEDTAVYYYAVDDYVYEMDYWGQGTQVTVSS,high polyreactivity
20,QVQLVDSAGGLVQAGGSLRLSCAASGITFGYYAMGWYRQAPGKERELVAAITSSGSTYYADSVKGRFTISRDNAKNTVYLQMNSLNPEDTAVYYCAARSWYSKYYYWGQGTQVTVSS,high polyreactivity
21,QVQHVESGGGILQAGRSLRLICAASGRLYLSNVMAWNRQAPGTERQLVAAITGRGSSTYYADSVKGRFTISRDNAKNTVYLLINSLKPEDSAVYSCAKRLPYSSGYEYWGQGTQVTVSS,high polyreactivity

# — the nanobody polyreactivity screen of Harvey et al. (2022)
